The source of these data is US20240255503A1 (UNIVERSITY OF NEWCASTLE UPON TYNE, published 2024).

Data set [1] addresses T1, L1109V mutant C3b, immobilised on a CM5 sensor chip (human, UniProt P01024 23-667; P01024 749-1663).
T1 construct: C3 purified from the serum of a homozygous aHUS patient and converted to C3b on the chip (898 RU, thioester coupled); also called L1109V C3b; variant C3b
Kind of data set: SPR steady-state affinity, FH19-20 20-0.156 µM over thioester-coupled L1109V C3b (898 RU); fitted KD from the same SPR run on L1109V C3b that the text calls a lack of binding.

Data set [2] concerns the target T2, Human C3b (wild type), immobilised on a CM5 sensor chip (human, UniProt P01024 23-667; P01024 749-1663).
T2 construct: also called WT C3b; WT C3
The data set is described as follows: SPR steady-state affinity, FH19-20 20-0.156 µM over thioester-coupled WT C3b (899 RU); WT C3b on the chip, not the L1109V mutant.

Data set [3] deals with C3b:FH1-4 complex (chip-bound C3b with co-injected WT FH1-4).
For data set [4], the target named is T3, C3b:FH1-4 complex (chip-bound C3b with co-injected WT FH1-4) (human, UniProt P01024 23-667; P01024 749-1663; P08603 19-263).
T3 construct: Composite target for the FI variants in the trimolecular complex (TMC) building assay, made of m1 and m3; FI and FH1-4 were injected together over C3b; also called FH/C3b; FH-1-4/C3b
T3 sequence (P01024 23-667 limits assumed, chain 1 of 2): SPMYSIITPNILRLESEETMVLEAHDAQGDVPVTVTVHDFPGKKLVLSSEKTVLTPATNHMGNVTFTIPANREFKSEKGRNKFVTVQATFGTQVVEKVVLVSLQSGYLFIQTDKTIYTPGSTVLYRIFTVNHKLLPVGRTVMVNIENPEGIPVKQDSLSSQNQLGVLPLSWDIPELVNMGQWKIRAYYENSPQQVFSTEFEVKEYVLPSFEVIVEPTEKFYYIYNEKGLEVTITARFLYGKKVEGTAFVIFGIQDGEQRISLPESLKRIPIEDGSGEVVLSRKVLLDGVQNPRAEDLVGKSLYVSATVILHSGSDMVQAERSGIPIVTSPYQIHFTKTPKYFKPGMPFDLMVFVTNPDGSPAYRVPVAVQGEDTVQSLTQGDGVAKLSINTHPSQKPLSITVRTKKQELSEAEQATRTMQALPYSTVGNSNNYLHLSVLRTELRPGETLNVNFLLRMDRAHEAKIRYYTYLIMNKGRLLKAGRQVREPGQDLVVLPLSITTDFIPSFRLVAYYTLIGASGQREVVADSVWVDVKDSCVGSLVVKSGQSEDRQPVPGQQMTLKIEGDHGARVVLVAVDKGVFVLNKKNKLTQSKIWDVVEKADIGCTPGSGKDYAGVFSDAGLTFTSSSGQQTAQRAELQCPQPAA
T3 sequence (P01024 749-1663 limits assumed, chain 2 of 2): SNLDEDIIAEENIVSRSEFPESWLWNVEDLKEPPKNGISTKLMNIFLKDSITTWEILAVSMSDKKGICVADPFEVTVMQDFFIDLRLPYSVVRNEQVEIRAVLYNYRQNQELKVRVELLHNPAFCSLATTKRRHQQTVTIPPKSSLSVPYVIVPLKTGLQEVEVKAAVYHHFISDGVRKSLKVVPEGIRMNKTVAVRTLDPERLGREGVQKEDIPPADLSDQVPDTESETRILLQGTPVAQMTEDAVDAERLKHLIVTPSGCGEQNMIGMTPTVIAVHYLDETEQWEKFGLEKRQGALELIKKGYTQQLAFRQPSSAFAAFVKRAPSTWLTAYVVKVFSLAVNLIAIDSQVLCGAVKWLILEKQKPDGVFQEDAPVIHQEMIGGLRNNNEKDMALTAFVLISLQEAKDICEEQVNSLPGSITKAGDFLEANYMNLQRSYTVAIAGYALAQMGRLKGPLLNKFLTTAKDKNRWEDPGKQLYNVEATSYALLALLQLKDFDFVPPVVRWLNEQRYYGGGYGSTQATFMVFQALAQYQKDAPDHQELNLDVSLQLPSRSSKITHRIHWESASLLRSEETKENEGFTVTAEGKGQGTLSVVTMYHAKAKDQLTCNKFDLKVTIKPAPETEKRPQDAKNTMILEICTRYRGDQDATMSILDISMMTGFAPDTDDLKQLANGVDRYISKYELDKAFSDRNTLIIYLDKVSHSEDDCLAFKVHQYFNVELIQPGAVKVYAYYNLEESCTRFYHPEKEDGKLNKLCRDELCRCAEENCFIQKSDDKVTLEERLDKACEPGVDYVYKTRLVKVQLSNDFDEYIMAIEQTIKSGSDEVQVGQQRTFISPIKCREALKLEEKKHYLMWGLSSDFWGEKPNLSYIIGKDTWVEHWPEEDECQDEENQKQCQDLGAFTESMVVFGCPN
Kind of data set: SPR TMC building, 62.5 nM FI with 125 nM WT FH1-4 over amine-coupled C3b.

Data set [5] has as its target T1, L1109V mutant C3b, immobilised on a CM5 …. The data set is described as follows: SPR affinity fit (BIAevaluation), WT full length FH over thiol-coupled L1109V C3b (898 RU) on a CM5 chip, PBST; printed under both panels [Continued]. An excerpt:
(§1) Dissociation constants (KD) are given under the graphs showing each concentration vs RU curve labelled with the appropriate variant.

The target is the same in data set [6]. Kind of data set: SPR affinity estimate, FL-FH over thioester-coupled mutant and WT C3b.
Text: as §1

For data set [7], the target named is T2, Human C3b (wild type), immobilised on a …. The data set is described as follows: SPR affinity estimate (not steady state), FL-FH 250-7.8 nM over thioester-coupled WT C3b.
Text: as §1

Data set [8] shares this target. Kind of data set: SPR steady-state affinity fit (BIAevaluation S200), WT FH1-4 over thiol-coupled WT C3b (899 RU) on a CM5 chip, PBST [Continued].
The target is the same in data set [9]. Kind of data set: SPR steady-state affinity fit (BIAevaluation S200), WT FH1-4 over C3b immobilised on a CM5 chip. An excerpt:
Data was collected at 40 Hz and there was a 120s stabilisation period between each sample being injected.

Data set [10] has as its target T1, L1109V mutant C3b, immobilised on a CM5 …. The data set is described as follows: SPR steady-state affinity, FH1-4 20-0.156 µM over thioester-coupled L1109V C3b (898 RU).
Data set [11] concerns the target T2, Human C3b (wild type), immobilised on a …. Kind of data set: SPR steady-state affinity, FH1-4 20-0.156 µM over thioester-coupled WT C3b (899 RU).

T1 sequence (P01024 23-667 limits assumed, chain 1 of 2): as the sequence (P01024 23-667 limits assumed, chain 1 of 2) above
T1 sequence (P01024 749-1663 L1109V limits assumed, chain 2 of 2): as the sequence (P01024 749-1663 limits assumed, chain 2 of 2) above, with L361V counted along it
T2 sequence (P01024 23-667 limits assumed, chain 1 of 2): as the sequence (P01024 23-667 limits assumed, chain 1 of 2) above
T2 sequence (P01024 749-1663 limits assumed, chain 2 of 2): as the sequence (P01024 749-1663 limits assumed, chain 2 of 2) above

B1: Complement Factor H CCP domains 19-20 (WT FH CCP19-20) (other, human, UniProt P08603 1107-1231, looked up)
chain: GKCGPPPPIDNGDITSFPLSVYAPASSVEYQCQNLYQLEGNKRITCRNGQWSEPPKCLHPCVISREIMENYNIALRWTAKQKLYSRTGESVEFVCKRGYRLSSRSHTLRTTCWDGKLEYPTCAKR
notes: domain: CCP19-20; also called FH19-20
Turning to B1, the Kd (in general, the equilibrium constant for the complex coming apart) in data set [1] was ~358 µM; in [2], 9.92 µM.

B2: Inactive (S525A) Complement Factor I (protein)
chain: KVTYTSQEDLVEKKCLAKKYTHLSCDKVFCQPWQRCIEGTCVCKLPYQCPKNGTAVCATNRRSFPTYCQQKSLECLHPGTKFLNNGTCTAEGKFSVSLKHGNTDSEGIVEVKLVDQDKTMFICKSSWSMREANVACLDLGFQQGADTQRRFKLSDLSINSTECLHVHCRGLETSLAECTFTKRRTMGYQDFADVVCYTQKADSPMDDFFQCVNGKYISQMKACDGINDCGDQSDELCCKACQGKGFHCKSGVCIPSQYQCNGEVDCITGEDEVGCAGFASVTQEETEILTADMDAERRRIKSLLPKLSCGVKNRMHIRRKRIVGGKRAQLGDLPWQVAIKDASGITCGGIYIGGCWILTAAHCLRASKTHRYQIWTTVVDWIHPDLKRIVIEYVDRIIFHENYNAGTYQNDIALIEMKKDGNKKDCELPRSIPACVPWSPYLFQPNDTCIVSGWGREKDNERVFSLQWGEVKLISNCSKFYGNRFYEKEMECAGTYDGSIDACKGDAGGPLVCMDANNVTYVWGVVSWGENCGKPEFPGVYTKVANYFDWISYHVGRPFISQYNV
For the molecule B2, the “cleavage of chip-bound C3b (SPR, convertase rebuilt before and after)” value in data set [3] is “Inactive (S525A) FI therefore demonstrated binding of the components of the AP regulatory TMC without cleaving the chip surface”.

B3: Complement Factor I with only an H380R mutation (protein)
chain: KVTYTSQEDLVEKKCLAKKYTHLSCDKVFCQPWQRCIEGTCVCKLPYQCPKNGTAVCATNRRSFPTYCQQKSLECLHPGTKFLNNGTCTAEGKFSVSLKHGNTDSEGIVEVKLVDQDKTMFICKSSWSMREANVACLDLGFQQGADTQRRFKLSDLSINSTECLHVHCRGLETSLAECTFTKRRTMGYQDFADVVCYTQKADSPMDDFFQCVNGKYISQMKACDGINDCGDQSDELCCKACQGKGFHCKSGVCIPSQYQCNGEVDCITGEDEVGCAGFASVTQEETEILTADMDAERRRIKSLLPKLSCGVKNRMHIRRKRIVGGKRAQLGDLPWQVAIKDASGITCGGIYIGGCWILTAARCLRASKTHRYQIWTTVVDWIHPDLKRIVIEYVDRIIFHENYNAGTYQNDIALIEMKKDGNKKDCELPRSIPACVPWSPYLFQPNDTCIVSGWGREKDNERVFSLQWGEVKLISNCSKFYGNRFYEKEMECAGTYDGSIDACKGDSGGPLVCMDANNVTYVWGVVSWGENCGKPEFPGVYTKVANYFDWISYHVGRPFISQYNV
Regarding B3, the “cleavage of chip-bound C3b (SPR)” value in data set [3] is listed as “H380R FI appears to bind to WT FH1-4/C3b without cleaving the C3b coupled chip surface”.

B4: Y459S inactive (S525A) Complement Factor I (enzyme)
chain: KVTYTSQEDLVEKKCLAKKYTHLSCDKVFCQPWQRCIEGTCVCKLPYQCPKNGTAVCATNRRSFPTYCQQKSLECLHPGTKFLNNGTCTAEGKFSVSLKHGNTDSEGIVEVKLVDQDKTMFICKSSWSMREANVACLDLGFQQGADTQRRFKLSDLSINSTECLHVHCRGLETSLAECTFTKRRTMGYQDFADVVCYTQKADSPMDDFFQCVNGKYISQMKACDGINDCGDQSDELCCKACQGKGFHCKSGVCIPSQYQCNGEVDCITGEDEVGCAGFASVTQEETEILTADMDAERRRIKSLLPKLSCGVKNRMHIRRKRIVGGKRAQLGDLPWQVAIKDASGITCGGIYIGGCWILTAAHCLRASKTHRYQIWTTVVDWIHPDLKRIVIEYVDRIIFHENYNAGTYQNDIALIEMKKDGNKKDCELPRSIPACVPWSPSLFQPNDTCIVSGWGREKDNERVFSLQWGEVKLISNCSKFYGNRFYEKEMECAGTYDGSIDACKGDAGGPLVCMDANNVTYVWGVVSWGENCGKPEFPGVYTKVANYFDWISYHVGRPFISQYNV
notes: also called Y459S FI
Take B4: in data set [4], the “increase in response (RU)” value was ~2 RU.

B5: Full Length Human Complement Factor H (FH) (other)
chain: EDCNELPPRRNTEILTGSWSDQTYPEGTQAIYKCRPGYRSLGNVIMVCRKGEWVALNPLRKCQKRPCGHPGDTPFGTFTLTGGNVFEYGVKAVYTCNEGYQLLGEINYRECDTDGWTNDIPICEVVKCLPVTAPENGKIVSSAMEPDREYHFGQAVRFVCNSGYKIEGDEEMHCSDDGFWSKEKPKCVEISCKSPDVINGSPISQKIIYKENERFQYKCNMGYEYSERGDAVCTESGWRPLPSCEEKSCDNPYIPNGDYSPLRIKHRTGDEITYQCRNGFYPATRGNTAKCTSTGWIPAPRCTLKPCDYPDIKHGGLYHENMRRPYFPVAVGKYYSYYCDEHFETPSGSYWDHIHCTQDGWSPAVPCLRKCYFPYLENGYNQNYGRKFVQGKSIDVACHPGYALPKAQTTVTCMENGWSPTPRCIRVKTCSKSSIDIENGFISESQYTYALKEKAKYQCKLGYVTADGETSGSITCGKDGWSAQPTCIKSCDIPVFMNARTKNDFTWFKLNDTLDYECHDGYESNTGSTTGSIVCGYNGWSDLPICYERECELPKIDVHLVPDRKKDQYKVGEVLKFSCKPGFTIVGPNSVQCYHFGLSPDLPICKEQVQSCGPPPELLNGNVKEKTKEEYGHSEVVEYYCNPRFLMKGPNKIQCVDGEWTTLPVCIVEESTCGDIPELEHGWAQLSSPPYYYGDSVEFNCSESFTMIGHRSITCIHGVWTQLPQCVAIDKLKKCKSSNLIILEEHLKNKKEFDHNSNIRYRCRGKEGWIHTVCINGRWDPEVNCSMAQIQLCPPPPQIPNSHNMTTTLNYRDGEKVSVLCQENYLIQEGEEITCKDGRWQSIPLCVEKIPCSQPPQIEHGTINSSRSSQESYAHGTKLSYTCEGGFRISEENETTCYMGKWSSPPQCEGLPCKSPPEISHGVVAHMSDSYQYGEEVTYKCFEGFGIDGPAIAKCLGEKWSHPPSCIKTDCLSLPSFENAIPMGEKKDVYKAGEQVTYTCATYYKMDGASNVTCINSRWTGRPTCRDTSCVNPPTVQNAYIVSRQMSKYPSGERVRYQCRSPYEMFGDEEVMCLNGNWTEPPQCKDSTGKCGPPPPIDNGDITSFPLSVYAPASSVEYQCQNLYQLEGNKRITCRNGQWSEPPKCLHPCVISREIMENYNIALRWTAKQKLYSRTGESVEFVCKRGYRLSSRSHTLRTTCWDGKLEYPTCAKR
notes: Bought (CompTech, A137); also called FL-FH; FLFH
For B5, the Kd in data set [5] was 1.01 µM; in [7], 0.28 µM. Moreover, the “fold change of KD, mutant C3b against WT C3b” value in data set [6] is 3.6 fold.

B6: Complement Factor I, wild type (active) (protein)
chain 1: KVTYTSQEDLVEKKCLAKKYTHLSCDKVFCQPWQRCIEGTCVCKLPYQCPKNGTAVCATNRRSFPTYCQQKSLECLHPGTKFLNNGTCTAEGKFSVSLKHGNTDSEGIVEVKLVDQDKTMFICKSSWSMREANVACLDLGFQQGADTQRRFKLSDLSINSTECLHVHCRGLETSLAECTFTKRRTMGYQDFADVVCYTQKADSPMDDFFQCVNGKYISQMKACDGINDCGDQSDELCCKACQGKGFHCKSGVCIPSQYQCNGEVDCITGEDEVGCAGFASVAQEETEILTADMDAERRRIKSLLPKLSCGVKNRMHI
chain 2: IVGGKRAQLGDLPWQVAIKDASGITCGGIYIGGCWILTAAHCLRASKTHRYQIWTTVVDWIHPDLKRIVIEYVDRIIFHENYNAGTYQNDIALIEMKKDGNKKDCELPRSIPACVPWSPYLFQPNDTCIVSGWGREKDNERVFSLQWGEVKLISNCSKFYGNRFYEKEMECAGTYDGSIDACKGDSGGPLVCMDANNVTYVWGVVSWGENCGKPEFPGVYTKVANYFDWISYHVGRPFISQYNV
For the molecule B6, the “cleavage of chip-bound C3b to iC3b (SPR, 25° C.)” value in data set [3] was “the chip was shown to be degraded almost instantaneously after formation of a small amount of TMC (˜3 RU) and conversion of C3b to iC3b”.

B7: Recombinant Human Complement Factor H CCPs 1-4 (6x His-tagged), wild type (other)
chain: EKREAEAAGEQKLISEEDLEDCNELPPRRNTEILTGSWSDQTYPEGTQAIYKCRPGYRSLGNVIMVCRKGEWVALNPLRKCQKRPCGHPGDTPFGTFTLTGGNVFEYGVKAVYTCNEGYQLLGEINYRECDTDGWTNDIPICEVVKCLPVTAPENGKIVSSAMEPDREYHFGQAVRFVCNSGYKIEGDEEMHCSDDGFWSKEKPKCVEISCKSPDVINGSPISQKIIYKENERFQYKCNMGYEYSERGDAVCTESGWRPLPSCEHHHHHH
notes: Produced in-house; also called FH1-4; WT FH1-4
B7: the equilibrium dissociation constant (Kd) in data set [8] came out at 8.09 µM; in data set [9] it was 10.1 µM; in data set [10] it was 9.2 µM; in data set [11], 8.1 µM.
